Key:
[1] = target: T1, Recombinant Human VEGF (human, UniProt P15692-4 27-191); experiment: direct bind ELISA
T1 construct: also called VEGF165
Experimental: (§1) Enzyme Linked Immunosorbent Assays to screen for antibodies that bind a desired target antigen were performed as follows. High bind ELISA plates (Corning Costar # 3369, Acton, Mass.) were coated with 100 μL/well of 10 μg/ml of desired target antigen (R&D Systems, Minneapolis, Minn.) or desired target antigen extra-cellular domain/FC fusion protein (R&D Systems, Minneapolis, Minn.) or monoclonal mouse anti-polyhistidine antibody (R&D Systems # MAB050, Minneapolis, Minn.) in phosphate buffered saline (10×PBS, Abbott Bioresearch Center, Media Prep# MPS-073, Worcester, Mass.) overnight at 4° C. Plates were washed four times with PBS containing 0.02% Tween 20. Plates were blocked by the addition of 300 μL/well blocking solution (non-fat dry milk powder, various retail suppliers, diluted to 2% in PBS) for ½ hour at room temperature. Plates were washed four times after blocking with PBS containing 0.02% Tween 20.
(§2) Plates were washed 4 times with PBS containing 0.02% Tween 20.
(§3) One hundred microliters of enhanced TMB solution (Neogen Corp. #308177, K Blue, Lexington, Ky.) was added to each well and incubated for 10 minutes at room temperature. The reaction was stopped by the addition of 50 μL 1N sulphuric acid. Plates were read spectrophotometrically at a wavelength of 450 nm.

[2] = target: T2, Recombinant Human IL-1β (human, UniProt P01584 117-269); experiment: direct bind ELISA
T2 construct: also called IL-1b; IL-1B
Experimental: as §1, §2, §3

[3] = target: T2, Recombinant Human IL-1β; experiment: cell-based or functional assay
[4] = target: T1, Recombinant Human VEGF; experiment: Biacore SPR
Experimental: (§4) The BIACORE assay (Biacore, Inc, Piscataway, N.J.) determines the affinity of antibodies or DVD-Ig with kinetic measurements of on-rate and off-rate constants. Binding of antibodies or DVD-Ig to a target antigen (for example, a purified recombinant target antigen) is determined by surface plasmon resonance-based measurements with a BiacoreR 1000 or 3000 instrument (Biacore® AB, Uppsala, Sweden) using running HBS-EP (10 mM HEPES [pH 7.4], 150 mM NaCl, 3 mM EDTA, and 0.005% surfactant P20) at 25° C. All chemicals are obtained from Biacore® AB (Uppsala, Sweden) or otherwise from a different source as described in the text. For example, approximately 5000 RU of goat anti-mouse IgG, (Fcγ), fragment specific polyclonal antibody (Pierce Biotechnology Inc, Rockford, Ill.) diluted in 10 mM sodium acetate (pH 4.5) is directly immobilized across a CM5 research grade biosensor chip using a standard amine coupling kit according to manufacturer's instructions and procedures at 25 μg/ml. Unreacted moieties on the biosensor surface are blocked with ethanolamine. Modified carboxymethyl dextran surface in flowcell 2 and 4 is used as a reaction surface. Unmodified carboxymethyl dextran without goat anti-mouse IgG in flow cell 1 and 3 is used as the reference surface. For kinetic analysis, rate equations derived from the 1:1 Langmuir binding model are fitted simultaneously to association and dissociation phases of all eight injections (using global fit analysis) with the use of Biaevaluation 4.0.1 software. Purified antibodies or DVD-Ig are diluted in HEPES-buffered saline for capture across goat anti-mouse IgG specific reaction surfaces. Antibodies or DVD-Ig to be captured as a ligand (25 μg/ml) are injected over reaction matrices at a flow rate of 5 μl/min. The association and dissociation rate constants, kₒₙ (M⁻¹s⁻¹) and koff (s⁻¹) are determined under a continuous flow rate of 25 μl/min. Rate constants are derived by making kinetic binding measurements at different antigen concentrations ranging from […]. The equilibrium dissociation constant (M) of the reaction between antibodies or DVD-Igs and the target antigen is then calculated from the kinetic rate constants by the following formula: KD=koff/kₒₙ. Binding is recorded as a function of time and kinetic rate constants are calculated.

[5] = target: T2, Recombinant Human IL-1β; experiment: Biacore SPR
Experimental: as §4

[6] = target: T3, Recombinant Human β-NGF (human, UniProt P01138 122-241); experiment: direct bind ELISA
T3 sequence (P01138 122-241 limits assumed): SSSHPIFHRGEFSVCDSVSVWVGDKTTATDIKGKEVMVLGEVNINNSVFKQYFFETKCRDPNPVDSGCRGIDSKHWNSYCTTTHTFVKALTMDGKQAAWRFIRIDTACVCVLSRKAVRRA
Experimental: as §1, §2, §3

[7] = target: T3, Recombinant Human β-NGF; experiment: Biacore SPR
Experimental: as §4

[8] = target: T4, Recombinant Human SOST (human, UniProt Q9BQB4 24-213); experiment: direct bind ELISA
T4 construct: also called SOST/His; Sclerostin
T4 sequence (looked up): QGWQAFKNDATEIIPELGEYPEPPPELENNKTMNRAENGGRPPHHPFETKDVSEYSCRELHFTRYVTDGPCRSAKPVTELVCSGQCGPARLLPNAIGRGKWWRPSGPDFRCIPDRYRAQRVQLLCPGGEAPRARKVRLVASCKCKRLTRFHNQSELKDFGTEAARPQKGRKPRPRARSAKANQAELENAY
Experimental: as §1, §2, §3

[9] = target: T4, Recombinant Human SOST; experiment: Biacore SPR
Experimental: as §4

[10] = target: T5, Recombinant Human Dkk-1 (human, UniProt O94907 32-266); experiment: direct bind ELISA
T5 construct: also called DKK-1/His
T5 sequence (looked up): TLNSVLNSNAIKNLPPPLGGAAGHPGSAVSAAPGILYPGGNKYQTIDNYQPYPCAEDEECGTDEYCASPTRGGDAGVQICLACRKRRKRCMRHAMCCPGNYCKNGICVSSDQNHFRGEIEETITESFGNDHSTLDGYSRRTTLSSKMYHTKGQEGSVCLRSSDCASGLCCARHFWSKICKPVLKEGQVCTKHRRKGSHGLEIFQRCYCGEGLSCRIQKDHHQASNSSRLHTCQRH
Experimental: as §1, §2, §3

[11] = target: T5, Recombinant Human Dkk-1; experiment: Biacore SPR
Experimental: as §4

[12] = target: T6, CD20 on cells (UniProt P11836 1-297, limits assumed); experiment: flow cytometry on cells, 2 µg/mL
T6 construct: whole, on cells
T6 sequence (looked up): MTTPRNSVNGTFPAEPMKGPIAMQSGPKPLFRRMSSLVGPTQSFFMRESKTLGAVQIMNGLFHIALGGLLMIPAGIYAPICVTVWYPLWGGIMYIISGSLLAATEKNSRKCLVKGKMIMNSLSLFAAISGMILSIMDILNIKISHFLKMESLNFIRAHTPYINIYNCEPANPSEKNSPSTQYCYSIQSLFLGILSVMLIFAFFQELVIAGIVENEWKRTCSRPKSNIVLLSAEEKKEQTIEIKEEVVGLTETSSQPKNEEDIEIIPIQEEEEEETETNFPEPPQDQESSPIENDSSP
Experimental: Stable cell lines overexpressing a cell-surface antigen of interest or human tumor cell lines were harvested from tissue culture flasks and resuspended in phosphate buffered saline (PBS) containing 5% fetal bovine serum (PBS/FBS). Prior to staining, human tumor cells were incubated on ice with (100 μl) human IgG at 5 μg/ml in PBS/FCS. 1−5×10⁵ cells were incubated with antibody or DVD-Ig (2 μg/mL) in PBS/FBS for 30-60 minutes on ice. […] After 30 minutes incubation on ice, cells were washed twice and resuspended in PBS/FBS. Fluorescence was measured using a Becton Dickinson FACSCalibur (Becton Dickinson, San Jose, Calif.).
The geometric mean is the n root of the multiplication product of n fluorescent signals (a1×a2×a3 . . . an). With log-transformed data the geometric mean is used to normalize the weighting of the data distribution.

[13] = target: T7, Recombinant Human TRANCE/RANKL/TNFSF 11 (human, UniProt O14788 69-317); experiment: direct bind ELISA
T7 construct: extracellular domain
T7 sequence (looked up): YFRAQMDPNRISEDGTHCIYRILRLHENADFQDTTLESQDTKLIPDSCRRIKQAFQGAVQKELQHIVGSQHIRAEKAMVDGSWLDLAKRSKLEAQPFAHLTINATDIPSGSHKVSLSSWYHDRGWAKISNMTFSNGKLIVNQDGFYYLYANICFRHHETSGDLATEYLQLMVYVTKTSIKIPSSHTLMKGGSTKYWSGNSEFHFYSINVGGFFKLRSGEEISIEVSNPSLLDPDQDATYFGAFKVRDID
Experimental: as §1, §2, §3

B1: DVD124 (bispecific antibody, human IgG1, kappa)
heavy: not shown
light: DIQMTQSPSSLSASVGDRVTITCSASQDISNYLNWYQQKPGKAPKVLIYFTSSLHSGVPSRFSGSGSGTDFTLTISSLQPEDFATYYCQQYSTVPWTFGQGTKVEIKRTVAAPEIVLTQSPDFQSVTPKEKVTITCRASQSIGSSLHWYQQKPDQSPKLLIKYASQSFSGVPSRFSGSGSGTDFTLTINSLEAEDAAAYYCHQSSSLPFTFGPGTKVDIKRTVAAPSVFIFPPSDEQLKSGTASVVCLLNNFYPREAKVQWKVDNALQSGNSQESVTEQDSKDSTYSLSSTLTLSKADYEKHKVYACEVTHQGLSSPVTKSFNRGEC
notes: outer AB014, inner AB032; vectors V1, V2
Question: How did the EC50 [1] turn out when B1 was run?
Answer: 3.49 nM

Question: And the EC50 [2]?
Answer: 459 nM

Question: What about the “IL-1β Neutralization Assay EC50 (MRC5 cells, hIL-8)” value [3] of the same binder?
Answer: 3.63 nM

Question: What about the Kd [4] of the same binder?
Answer: 0.0467 nM

Question: And the koff [4]?
Answer: 4.03e-05 s⁻¹

Question: What about the kon [4] of the same binder?
Answer: 863000 M⁻¹ s⁻¹

Question: What about the Kd [5] of the same binder?
Answer: 1.41 nM

Question: And the koff [5]?
Answer: 9.32e-05 s⁻¹

Question: What about the kon [5] of the same binder?
Answer: 66000 M⁻¹ s⁻¹

B2: AB020 (antibody, human IgG1, kappa, V domains shown)
VH: QVQLQESGPGLVKPSETLSLTCTVSGFSLIGYDLNWIRQPPGKGLEWIGIIWGDGTTDYNSAVKSRVTISKDTSKNQFSLKLSSVTAADTAVYYCARGGYWYATSYYFDYWGQGTLVTVSS
VL: DIQMTQSPSSLSASVGDRVTITCRASQSISNNLNWYQQKPGKAPKLLIYYTSRFHSGVPSRFSGSGSGTDFTFTISSLQPEDIATYYCQQEHTLPYTFGQGTKLEIKR
notes: vectors V1 and V2; also called anti-NGF parent antibody
Question: B2 was tested. Which EC50 [6] did it give?
Answer: 9 nM

Question: And the Kd [7]?
Answer: < 0.000926 nM

Question: What about the koff [7] of the same binder?
Answer: < 1e-06 s⁻¹

Question: And the kon [7]?
Answer: 1.08e+06 M⁻¹ s⁻¹

B3: AB022 (antibody, human IgG1, kappa, V domains shown)
VH: EVQLQQSGPELVTPGASVKISCKASGYTFTDHYMSWVKQSHGKSLEWIGDINPYSGETTYNQKFKGTATLTVDKSSSIAYMEIRGLTSEDSAVYYCARDDYDASPFAYWGQGTLVTVSA
VL: DVQMIQSPSSLSASLGDIVTMTCQASQGTSINLNWFQQKPGKAPKLLIYGSSNLEDGVPSRFSGSRYGTDFTLTISSLEDEDLATYFCLQHSYLPYTFGGGTKLEIKR
notes: vectors V1 and V2
Question: For B3, which EC50 [8] is on record?
Answer: 0.66 nM

Question: What about the Kd [9] of the same binder?
Answer: 0.0379 nM

Question: And the koff [9]?
Answer: 2.44e-05 s⁻¹

Question: And the kon [9]?
Answer: 642000 M⁻¹ s⁻¹

B4: AB023 (antibody, human IgG1, kappa, V domains shown)
VH: EVQLVESGGGLVQPANSLKLSCAASGFTFSDYAMAWVRQSPKKGLEWVATIIYDGSSTYYRDSVKGRFTISRDNAKSTLYLQMDSLRSEDTATYYCATGLGIATDYFDYWGQGVLVTVSS
VL: DIRMTQSPASLSASLGETVNIECLASEDIYSDLAWYQQKPGKSPQLLIYNANSLQNGVPSRFSGSGSGTQYSLKINSLQSEDVATYFCQQYNNYPPTFGGGTKLELKR
notes: vectors V1 and V2; also called anti-DKK parent antibody
Question: What does the source list for B4?
Answer: EC50 [10]: 6.83 nM; Kd [11]: < 0.0087 nM; koff [11]: 8.7e-05 s⁻¹; kon [11]: > 1e+07 M⁻¹ s⁻¹

B5: AB001 (antibody, human IgG1, kappa, V domains shown)
VH: QVQLQQPGAELVKPGASVKMSCKASGYTFTSYNMHWVKQTPGRGLEWIGAIYPGNGDTSYNQKFKGKATLTADKSSSTAYMQLSSLTSEDSAVYYCARSTYYGGDWYFNVWGAGTTVTVSA
VL: QIVLSQSPAILSPSPGEKVTMTCRASSSVSYIHWFQQKPGSSPKPWIYATSNLASGVPVRFSGSGSGTSYSLTISRVEAEDAATYYCQQWTSNPPTFGGGTKLEIKR
notes: vectors V1 (wild type hIgG1 constant) and V2 (kappa); also called anti-CD20 parent antibody
Question: B5 was tested. Which “FACS Geometric Mean” value [12] did it give?
Answer: 1350

B6: DVD165 (bispecific antibody, human IgG1, kappa)
heavy: not shown
light: QIVLSQSPAILSPSPGEKVTMTCRASSSVSYIHWFQQKPGSSPKPWIYATSNLASGVPVRFSGSGSGTSYSLTISRVEAEDAATYYCQQWTSNPPTFGGGTKLEIKRTVAAPEIVLTQSPGTLSLSPGERATLSCRASQSVRGRYLAWYQQKPGQAPRLLIYGASSRATGIPDRFSGSGSGTDFTLTISRLEPEDFAVFYCQQYGSSPRTFGQGTKVEIKRTVAAPSVFIFPPSDEQLKSGTASVVCLLNNFYPREAKVQWKVDNALQSGNSQESVTEQDSKDSTYSLSSTLTLSKADYEKHKVYACEVTHQGLSSPVTKSFNRGEC
notes: vectors V1, V2; also called CD-20 and RANKL DVD-Ig
Question: What does the source list for B6?
Answer: EC50 [13]: 0.32 nM; FACS Geometric Mean [12]: 1890
